The source of these data is patent US20250002563A1 (published 2025).

This test addresses RBD (UniProt P0DTC2 319-541). In words: SPR. Background: In SPR one partner is held on a chip, and binding of the other changes the refractive index at the surface.

B1: Nb21 (VHH)
VHH: QVQLVESGGGLVQAGGSLRLSCAVSGLGAHRVGWFRRAPGKEREFVAAIGANGGNTNYLDSVKGRFTISRDNAKNTIYLQMNSLKPQDTAVYYCAARDIETAEYTYWGQGTQVTVSS
As to B1, the Kd (usually the concentration at which binding is half-saturated) is less than 1 pM.
